Experiment [1] concerns the target T1, Human STEAP1 (human, UniProt Q9UHE8 1-339).
T1 construct: Endogenous on Ewing's sarcoma cell lines (TC32 and others) and prostate cancer cell lines; as STP1h transfected into HEK293 cells with a lentiviral vector (GFP part of the transgene); also called STP1h
In words: flow cytometry on TC32 cells after repeated washes in PBS with 2 mM EDTA. As for the experimental part: Following binding of the primary antibody, cells were washed in PBS with 2 mM EDTA from 1 to 10 times. After each wash cells were stained with the secondary PE-conjugated goat anti-human IgG antibody and washed once with PBS for flow cytometry. Mean fluorescence intensity (MFI) was normalized to time 1 and depicted in FIG. 4B. While chimeric antibody dropped to below 50% after first wash, clones L1+H1, L1+H2, L1+H5 and L2+H2 remained above 50% through wash #8 and therefore scored as slow koff.
After initial staining (FIG. 4A), ten different clones, including the chimeric BsAb clone, were chosen for further study. To assess binding of these ten clones to TC32 cells, following incubation of the BsAbs, the cells were subjected to ten washes with PBS. An aliquot of the binding reaction after each wash was stained with a fluorochrome labelled anti-human secondary antibody. The extent of binding of the anti-STEAP1 BsAbs to TC32 cells was measured using flow cytometry.
(In general: A flow cytometer gives signals particle by particle.)

Experiment [2] addresses T1, Human STEAP1. Nature of the experiment: flow cytometry staining of TC32 cells with different doses.

T1 sequence (Q9UHE8 whole entry): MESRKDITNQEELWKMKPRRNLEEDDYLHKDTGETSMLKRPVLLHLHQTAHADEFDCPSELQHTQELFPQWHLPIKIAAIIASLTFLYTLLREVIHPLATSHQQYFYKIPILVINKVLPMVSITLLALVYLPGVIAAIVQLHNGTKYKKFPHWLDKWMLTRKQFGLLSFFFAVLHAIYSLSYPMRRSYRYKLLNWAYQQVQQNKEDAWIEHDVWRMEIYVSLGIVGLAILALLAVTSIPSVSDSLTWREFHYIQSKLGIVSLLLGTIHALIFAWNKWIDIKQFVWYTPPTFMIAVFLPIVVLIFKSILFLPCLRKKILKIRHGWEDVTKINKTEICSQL

B1: BC259 (VH-1+VL-1 BsAb variant) (bispecific antibody, V domains shown)
VH: QVQVQESGPGLVKPSQTLSLTCTVTGYSITSDYAWNWIRQPPGKGLEWMGYISNSGSTSYNPSLKSRITISRDTSKNQFSLKLSSVTAADTAVYYCARERNYDYDDYYYAMDYWGQGTTLTVSA
VL: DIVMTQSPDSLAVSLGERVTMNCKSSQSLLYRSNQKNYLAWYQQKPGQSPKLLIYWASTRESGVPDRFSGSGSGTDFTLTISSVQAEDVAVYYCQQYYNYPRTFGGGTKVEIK
notes: One of the 24 humanized X120 versions; light chain extended by (G4S)3 linker and huOKT3 anti-CD3 scFv); also called L1+H1
Regarding B1, the “Mean fluorescence intensity (MFI) normalized to time 1, through wash #8” value with Human STEAP1 [1] was over 50%.

B2: humanized X120 clone L4+H2 (bispecific antibody, IgG1, V domains shown)
VH: DVQVQESGPGLVKPSQTLSLTCTVTGYSITSDYAWNWIRQPPGKGLEWMGYISNSGSTSYNPSLKSRITISRDTSKNQFSLKLSSVTAADTAVYYCARERNYDYDDYYYAMDYWGQGTTLTVSA
VL: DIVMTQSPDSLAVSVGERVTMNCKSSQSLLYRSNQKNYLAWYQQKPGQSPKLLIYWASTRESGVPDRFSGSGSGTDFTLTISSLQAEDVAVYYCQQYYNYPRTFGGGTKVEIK
notes: One of the 24 humanized X120 versions; light chain with (G4S)3 linker and huOKT3 scFv)
Turning to B2, the binding result in the experiment with Human STEAP1 [2] is listed as “binds”.

B3: humanized X120 clone L4+H1 (bispecific antibody, IgG1, V domains shown)
VH: QVQVQESGPGLVKPSQTLSLTCTVTGYSITSDYAWNWIRQPPGKGLEWMGYISNSGSTSYNPSLKSRITISRDTSKNQFSLKLSSVTAADTAVYYCARERNYDYDDYYYAMDYWGQGTTLTVSA
VL: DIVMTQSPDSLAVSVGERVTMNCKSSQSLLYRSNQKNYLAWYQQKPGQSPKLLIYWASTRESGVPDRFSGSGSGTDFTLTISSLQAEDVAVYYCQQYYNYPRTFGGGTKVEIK
notes: as for B2
Consider B3, for which the binding result in the experiment with Human STEAP1 [2] was “binds”.

B4: humanized X120 clone L2+H1 (bispecific antibody, IgG1, V domains shown)
VH: QVQVQESGPGLVKPSQTLSLTCTVTGYSITSDYAWNWIRQPPGKGLEWMGYISNSGSTSYNPSLKSRITISRDTSKNQFSLKLSSVTAADTAVYYCARERNYDYDDYYYAMDYWGQGTTLTVSA
VL: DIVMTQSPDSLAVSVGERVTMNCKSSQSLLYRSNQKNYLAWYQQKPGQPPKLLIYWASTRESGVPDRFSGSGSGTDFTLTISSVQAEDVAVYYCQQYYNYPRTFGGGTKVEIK
notes: as for B2
On to B4, for which the binding result with Human STEAP1 [2] is given as “binds”.

B5: BC260 (VH-2+VL-1 BsAb variant) (bispecific antibody, V domains shown)
VH: DVQVQESGPGLVKPSQTLSLTCTVTGYSITSDYAWNWIRQPPGKGLEWMGYISNSGSTSYNPSLKSRITISRDTSKNQFSLKLSSVTAADTAVYYCARERNYDYDDYYYAMDYWGQGTTLTVSA
VL: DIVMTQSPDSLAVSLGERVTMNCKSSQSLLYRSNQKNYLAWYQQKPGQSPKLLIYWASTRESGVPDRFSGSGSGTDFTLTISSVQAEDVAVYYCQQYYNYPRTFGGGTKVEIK
notes: One of the 24 humanized X120 versions; light chain extended by (G4S)3 linker and huOKT3 anti-CD3 scFv); also called L1+H2
In the case of B5, the “Mean fluorescence intensity (MFI) normalized to time 1, through wash #8” value in the experiment with Human STEAP1 [1] was over 50%.

Source of the values: patent US20220348686A1 (Memorial Sloan Kettering, published 2022).
